Experimental data reported in patent publication US8697369B2, “Method for screening a test substance for activating a receptor associated with FGF 21 activity” (National Institute of Advanced Industrial Science and …, priority 2007, dated 2014).

T1: betaKlotho (Mus musculus, UniProt Q99N32)
T1 construct: a V5 tag and a His tag were added to the C-terminus of the extracellular domain of betaKlotho; made in house
T1 sequence (Q99N32 1-992): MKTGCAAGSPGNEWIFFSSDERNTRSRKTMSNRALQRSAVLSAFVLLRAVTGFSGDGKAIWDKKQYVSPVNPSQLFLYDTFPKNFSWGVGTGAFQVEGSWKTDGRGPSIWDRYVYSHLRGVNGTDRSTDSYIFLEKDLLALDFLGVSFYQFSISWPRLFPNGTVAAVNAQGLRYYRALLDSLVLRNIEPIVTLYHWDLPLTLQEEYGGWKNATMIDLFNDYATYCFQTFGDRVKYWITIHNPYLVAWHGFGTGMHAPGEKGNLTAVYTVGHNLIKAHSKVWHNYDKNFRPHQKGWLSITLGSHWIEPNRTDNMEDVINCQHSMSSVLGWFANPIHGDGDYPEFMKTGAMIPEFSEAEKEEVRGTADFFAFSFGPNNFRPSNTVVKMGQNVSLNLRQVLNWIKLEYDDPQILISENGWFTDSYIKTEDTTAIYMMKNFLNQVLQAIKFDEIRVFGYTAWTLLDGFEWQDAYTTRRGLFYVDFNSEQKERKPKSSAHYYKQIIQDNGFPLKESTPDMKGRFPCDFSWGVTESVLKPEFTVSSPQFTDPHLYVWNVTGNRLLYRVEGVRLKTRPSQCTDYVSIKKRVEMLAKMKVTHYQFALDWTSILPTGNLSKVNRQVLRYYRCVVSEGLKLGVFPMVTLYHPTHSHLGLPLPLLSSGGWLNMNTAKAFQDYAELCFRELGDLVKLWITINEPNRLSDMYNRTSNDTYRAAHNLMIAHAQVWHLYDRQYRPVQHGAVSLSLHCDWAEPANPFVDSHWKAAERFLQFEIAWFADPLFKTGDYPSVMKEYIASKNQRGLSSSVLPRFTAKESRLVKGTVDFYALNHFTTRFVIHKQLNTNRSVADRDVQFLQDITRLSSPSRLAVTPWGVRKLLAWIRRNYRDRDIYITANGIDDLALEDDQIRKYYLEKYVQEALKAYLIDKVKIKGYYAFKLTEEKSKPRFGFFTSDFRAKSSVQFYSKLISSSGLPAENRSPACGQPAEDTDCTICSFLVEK


Assays:
[1] = target: T2, humanized FGFR3c/humanized betaKlotho (hβKlotho)-expressing cells (Homo sapiens, UniProt P22607+Q86Z14, A441S/A461E/A470D/A499P/A500N/A559S/A717S/A734V/A765M/C582S/D512S/D516E/D576E/D580N/D722E/D758Q/D785E/DEL405-414/E426D/E447G/E729D/E768D/F566Y/F579Y/F591S/F767L/G446S/G448T/G548D/G773S/G774F/H721N/I440P/I494L/I698V/I726M/INS417HSQMAVHKLAKSI/INS423TV/INS780T/K420R/K464R/K501R/K583H/L398M/L425A/L457Y/L554I/L645I/L752V/M488L/N428S/N434G/N453G/N644H/P401G/P402T/P436L/P502V/P584N/P778R/Q611K/Q775P/R397K/R399K/R416D/R498K/R568Q/S432N/S468P/S578C/S781C/T435V/T450M/T473V/T504K/T581P/T590S/T753A/T757N/V503T/V523I/V642I/V670I/V751I/V754L); experiment: DNA synthesis in humanized FGFR3c/humanized betaKlotho-expressing BaF3 cells; assay type: cell-based; details: humanized FGFR3c and humanized betaKlotho; 10 μg/ml heparin
T2 construct: expressed in transfected cells; host or cells: BaF3 (mouse pro-B) cells
T2 sequence (P22607 other isoform, or with tags, fused parts or gaps with the stated changes): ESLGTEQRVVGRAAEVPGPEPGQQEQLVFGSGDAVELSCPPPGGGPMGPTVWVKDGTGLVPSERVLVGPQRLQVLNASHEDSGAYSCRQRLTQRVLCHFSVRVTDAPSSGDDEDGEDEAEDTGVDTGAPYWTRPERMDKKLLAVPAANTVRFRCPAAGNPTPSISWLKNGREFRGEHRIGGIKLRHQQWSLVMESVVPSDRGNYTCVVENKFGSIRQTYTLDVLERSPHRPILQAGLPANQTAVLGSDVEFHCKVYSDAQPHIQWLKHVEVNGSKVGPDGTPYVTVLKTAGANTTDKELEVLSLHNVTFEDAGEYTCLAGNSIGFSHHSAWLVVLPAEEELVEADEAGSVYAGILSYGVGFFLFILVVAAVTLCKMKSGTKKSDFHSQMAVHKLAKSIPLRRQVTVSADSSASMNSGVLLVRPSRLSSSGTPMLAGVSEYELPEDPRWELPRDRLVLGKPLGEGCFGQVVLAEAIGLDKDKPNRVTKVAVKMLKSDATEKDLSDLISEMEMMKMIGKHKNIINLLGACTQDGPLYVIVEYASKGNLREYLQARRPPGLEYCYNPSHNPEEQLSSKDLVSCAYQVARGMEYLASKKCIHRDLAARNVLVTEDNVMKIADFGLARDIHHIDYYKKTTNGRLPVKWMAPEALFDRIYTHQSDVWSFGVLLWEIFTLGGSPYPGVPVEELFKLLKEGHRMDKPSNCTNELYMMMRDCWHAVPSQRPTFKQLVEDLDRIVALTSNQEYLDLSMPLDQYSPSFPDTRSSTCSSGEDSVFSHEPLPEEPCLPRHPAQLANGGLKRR
T2 sequence (Q86Z14 whole entry, stated change not applied): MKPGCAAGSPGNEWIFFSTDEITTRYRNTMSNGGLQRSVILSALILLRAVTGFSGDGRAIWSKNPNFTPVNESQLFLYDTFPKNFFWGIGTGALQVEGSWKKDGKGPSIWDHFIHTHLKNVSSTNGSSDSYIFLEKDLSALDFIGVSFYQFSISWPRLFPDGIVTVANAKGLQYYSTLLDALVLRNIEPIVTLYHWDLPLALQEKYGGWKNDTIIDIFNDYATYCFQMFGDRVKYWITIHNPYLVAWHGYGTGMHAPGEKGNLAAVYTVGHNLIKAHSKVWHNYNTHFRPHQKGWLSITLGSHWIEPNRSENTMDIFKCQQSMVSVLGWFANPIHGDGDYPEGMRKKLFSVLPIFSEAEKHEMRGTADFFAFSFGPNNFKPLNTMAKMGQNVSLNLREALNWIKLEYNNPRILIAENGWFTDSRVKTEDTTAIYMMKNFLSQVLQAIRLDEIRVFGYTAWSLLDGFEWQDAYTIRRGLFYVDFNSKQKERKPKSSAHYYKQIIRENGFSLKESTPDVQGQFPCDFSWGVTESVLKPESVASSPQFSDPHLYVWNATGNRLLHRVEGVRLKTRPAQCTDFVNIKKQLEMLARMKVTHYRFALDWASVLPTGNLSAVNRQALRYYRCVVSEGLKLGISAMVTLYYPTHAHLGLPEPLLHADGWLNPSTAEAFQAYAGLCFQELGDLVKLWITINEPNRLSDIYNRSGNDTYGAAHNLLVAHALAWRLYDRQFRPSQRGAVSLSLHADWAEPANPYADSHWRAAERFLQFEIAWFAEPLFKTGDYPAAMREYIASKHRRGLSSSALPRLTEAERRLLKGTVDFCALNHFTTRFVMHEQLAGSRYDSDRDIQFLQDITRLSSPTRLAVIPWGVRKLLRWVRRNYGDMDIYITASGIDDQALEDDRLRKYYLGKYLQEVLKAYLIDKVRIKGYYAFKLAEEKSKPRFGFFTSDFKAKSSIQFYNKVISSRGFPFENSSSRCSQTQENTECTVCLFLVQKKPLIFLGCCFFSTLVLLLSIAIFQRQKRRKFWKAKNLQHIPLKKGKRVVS
Experimental: The homology between human FGFR3 and mouse FGFR3 at the amino acid sequence level is 93%. […] The cDNA of humanized FGFR3c was prepared from a commercially available human RNA sample (Takara Bio Inc.) by PCR. The sequence of its intracellular portion was substituted with the sequence of humanized FGFR1, and it was then introduced into an expression vector having an SRalpha promoter (pSRalpha). The FGFR3c expression vector was introduced into BaF3 cells by an electroporation method, so as to obtain FGFR3c-expressing BaF3 cells as G418-resistant clones. In the case of FGFR3c/betaKlotho-co-expressing cells, a betaKlotho expression vector was introduced into the FGFR3c-expressing BaF3 cells, so as to obtain the aforementioned cells as Puromycin-resistant clones. In the presence of heparin, humanized FGF21 was added in various types of concentrations to FGFR3c-expressing cells or FGFR3c/betaKlotho-co-expressing cells, and the amount of DNA synthesized was then measured.

[2] = system: 3T3-L1 fibroblasts forced to express betaKlotho; experiment: GLUT1 mRNA level in 3T3-L1 fibroblasts forced to express betaKlotho; assay type: cell-based; details: betaKlotho expression vector; various concentrations; 6 hours
Experimental: (§1) A betaKlotho expression vector or an empty vector used as a control, into which betaKlotho cDNA had not been inserted, were introduced into 3T3-L1 fibroblasts, and FGF21 was then added in various types of concentrations to a culture solution of the 3T3-L1 fibroblasts. The obtained mixture was cultured for 6 hours. Thereafter, RNA was extracted, and the mRNA level of GLUT1 was then measured.

[3] = system: control 3T3-L1 fibroblasts; experiment: GLUT1 mRNA level in control 3T3-L1 fibroblasts (empty vector); assay type: cell-based; details: various concentrations, 6 hours
Experimental: as §1

[4] = target: T1, betaKlotho; experiment: Co-precipitation of FGF21 with soluble betaKlotho protein (anti-V5 beads, immunoblotting); assay type: binding; details: presence or absence of heparin
Experimental: In the present example, the formation of a complex between betaKlotho and an FGF receptor or FGF21 was examined in a biochemical manner. Specifically, a V5 tag and a His tag were added to the C-terminus of the extracellular domain of betaKlotho in a tandem manner to prepare a soluble protein. Thereafter, the soluble betaKlotho protein was incubated with FGF21 in a test tube in the presence or absence of heparin, and betaKlotho was then precipitated using anti-V5 tag antibody-immobilized beads. Whether or not FGF21 bound to betaKlotho and was co-precipitated therewith was analyzed by an immunoblotting method.

amount of DNA synthesized (thymidine incorporation) [1] | Molecule | mRNA level of GLUT1 [2] | mRNA level of GLUT1 [3] | co-precipitation (binding) with soluble betaKlotho protein [4]
promoted the DNA synthesis | FGF1: conventional FGF used as a control |  |  | 
 | FGF21: fibroblast growth factor 21; mouse-derived protein used in Examples 1-7 and 10-13 (protein) AYPIPDSSPLLQFGGQVRQRYLYTDDDQDTEAHLEIREDGTVVGAAHRSPESLLELKALKPGVIQILGVKASRFLCQQPDGALYGSPHFDPEACSFRELLLEDGYNVYQSEAHGLPLRLPQKDSPNQDATSWGPVRFLPMPGLLHEPQDQAGFLPPEPPDVGSSDPLSMVEPLQGRSPSYAS | increased depending on the amount of FGF21 | not observed | precipitated in the presence of betaKlotho
